{"source": "paper PMC7302350", "target": "DOT1L (1-416), recombinant (Homo sapiens) (UniProt Q8TEK3)", "sequence (Q8TEK3 1-416)": "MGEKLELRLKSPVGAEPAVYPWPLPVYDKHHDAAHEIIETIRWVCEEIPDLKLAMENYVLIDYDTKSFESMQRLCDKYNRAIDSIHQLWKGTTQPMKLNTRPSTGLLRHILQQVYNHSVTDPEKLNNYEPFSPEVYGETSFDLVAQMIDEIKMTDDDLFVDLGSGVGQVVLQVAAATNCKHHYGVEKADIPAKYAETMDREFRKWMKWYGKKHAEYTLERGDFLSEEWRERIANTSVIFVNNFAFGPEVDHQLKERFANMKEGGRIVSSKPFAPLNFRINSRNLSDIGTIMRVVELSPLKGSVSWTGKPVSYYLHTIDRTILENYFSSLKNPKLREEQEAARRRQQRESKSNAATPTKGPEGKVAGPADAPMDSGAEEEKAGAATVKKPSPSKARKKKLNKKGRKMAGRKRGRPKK", "assay": "EMSA", "conditions": "EMSA: 10 mM HEPES pH 7.3, 20 mM KCl, 1 mM MgCl2, 1 mM DTT, 5% glycerol, 100 ug/mL tRNA, room temperature 30 min; pull-down: Pierce Magnetic RNA-Protein …", "data": [{"sequence": "GGGACAUUCGAGCAGCUGCUCUGGAGAAACAGCAGGAUCUACGGAAGUUUGUACCCACCGCCUCGCCUGCAGCCUCGGGAGUCUCAACCCAAGCCGGCCCGGCCUUGUAGCCCAGAGCAGCAAAGCCACAGCAGGCAACGCGAGCUAACGCGGGUCGCGCGGAGGUCGGGAGCCCAGGCGGCGGAGGCGGCGGCGGCGCAGUUAUUCCCGGGUGACUCUGGGGACUCGUGCAGAUGGGGGACGCCUCCGGCCACGCACUUGGAGCCA [LAMP5-AS1 503-764]", "values": [{"measurement": "binding", "result": "binds"}]}]}
